The text below walks through data of US20050043234A1.

This assay deals with zFGF5 (human) (UniProt O76093). In words: cell-based or functional assay.
zFGF5 (human), sequence (O76093 28-207): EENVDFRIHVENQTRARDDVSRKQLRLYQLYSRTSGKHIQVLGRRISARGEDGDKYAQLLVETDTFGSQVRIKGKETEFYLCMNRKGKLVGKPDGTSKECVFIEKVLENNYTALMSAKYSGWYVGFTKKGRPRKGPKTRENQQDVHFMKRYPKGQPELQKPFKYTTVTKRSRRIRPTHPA

Consider “FGFR2α-IIIb/Fc (from UniProt P21802 22-378) (Fc fusion)”, for which the Cell Proliferation (percent of control), BAF3/FGFR3α-IIIc cells with zFGF5, soluble receptor at 0 fold-excess (percent of control) amounted to 100; the Cell Proliferation (percent of control), BAF3/FGFR3α-IIIc cells with zFGF5, soluble receptor at 62.5 fold-excess (percent of control) turned out to be 101; the Cell Proliferation (percent of control), BAF3/FGFR3α-IIIc cells with zFGF5, soluble receptor at 125 fold-excess (percent of control) stood at 90; the Cell Proliferation (percent of control), BAF3/FGFR3α-IIIc cells with zFGF5, soluble receptor at 250 fold-excess (percent of control) was found to be 91. Besides, the Cell Proliferation (percent of control), BAF3/FGFR3α-IIIc cells with zFGF5, soluble receptor at 500 fold-excess (percent of control) stood at 101 and the Cell Proliferation (percent of control), BAF3/FGFR3α-IIIc cells with zFGF5, soluble receptor at 1000 fold-excess (percent of control) was 99.
